Earlier results on one substance are cited in publication PMC12135873.

This data set addresses Cys106 (UniProt position 106, LIAAICAGPTA).

Consider “DJ-1 (PARK7, Parkinson disease protein 7) (Homo sapiens)”, for which the pKa is listed as 5.4.
